The values that follow come from article PMC12118636.

Read-outs that look alike come from different tables or passages of the source.

In assay [1] the target is hNaV1.9 IQ domain peptide (human). The assay can be described thus: ITC.
For assay [2] the target is unchanged. Description: ITC. This is another data set of the same source.

Regarding “Human calmodulin (from UniProt P0DP23 1-149) (natural protein)”, the Kd in assay [1] amounted to 37 µM; in assay [2], 480 µM.
